Experiments:
Assay in all cases: holdup assay
Set-up in all cases: key: below the threshold = too weak to quantify, mostly under pKd 3.1 to 4
MAGI2_6, Q86UL8 = target: MAGI2_6, Q86UL8
MPP7, Q5T2T1 = target: T1, MPP7, Q5T2T1
T1 sequence (Q5T2T1 134-230, limits assumed, looked up): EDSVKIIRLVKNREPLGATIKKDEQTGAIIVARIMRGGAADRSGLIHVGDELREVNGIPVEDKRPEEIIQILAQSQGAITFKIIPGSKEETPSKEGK

APBA3_1, O96018 = target: T2, APBA3_1, O96018
T2 sequence (O96018 389-490, limits assumed, looked up): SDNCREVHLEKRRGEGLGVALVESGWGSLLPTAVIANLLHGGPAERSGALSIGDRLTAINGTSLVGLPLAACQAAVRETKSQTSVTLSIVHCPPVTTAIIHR

ARHGEF11, O15085 = target: T3, ARHGEF11, O15085
T3 sequence (O15085 42-136, limits assumed, looked up): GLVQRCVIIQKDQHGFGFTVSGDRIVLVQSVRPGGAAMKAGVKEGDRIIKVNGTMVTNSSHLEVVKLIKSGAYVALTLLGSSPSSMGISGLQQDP

APBA2_1, Q99767 = target: T4, APBA2_1, Q99767
T4 sequence (Q99767 563-664, limits assumed, looked up): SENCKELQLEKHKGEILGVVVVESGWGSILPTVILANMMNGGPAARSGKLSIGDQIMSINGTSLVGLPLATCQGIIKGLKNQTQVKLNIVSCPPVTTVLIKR

SNTG1, Q9NSN8 = target: T5, SNTG1, Q9NSN8
T5 sequence (Q9NSN8 52-150, limits assumed, looked up): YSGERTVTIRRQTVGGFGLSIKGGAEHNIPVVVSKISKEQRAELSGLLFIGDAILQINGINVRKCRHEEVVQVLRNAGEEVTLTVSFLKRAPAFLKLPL

RHPN1, Q8TCX5 = target: T6, RHPN1, Q8TCX5
T6 sequence (Q8TCX5 508-602, limits assumed, looked up): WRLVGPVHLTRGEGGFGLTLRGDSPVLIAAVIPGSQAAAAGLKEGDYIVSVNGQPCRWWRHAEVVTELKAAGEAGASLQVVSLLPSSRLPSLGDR

TX1BP3, O14907 = target: T7, TX1BP3, O14907
T7 sequence (O14907 10-122, limits assumed, looked up): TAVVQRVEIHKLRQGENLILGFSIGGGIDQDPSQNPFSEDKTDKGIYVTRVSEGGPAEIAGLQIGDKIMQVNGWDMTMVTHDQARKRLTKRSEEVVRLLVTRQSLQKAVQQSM

TJP1_2, Q07157 = target: TJP1_2, Q07157
CASK, O14936 = target: CASK, O14936
MAGI1_1, Q96QZ7 = target: MAGI1_1, Q96QZ7
GRIP2_4, Q9C0E4 = target: GRIP2_4, Q9C0E4
MPP6, Q9NZW5 = target: T8, MPP6, Q9NZW5
T8 sequence (Q9NZW5 125-219, limits assumed, looked up): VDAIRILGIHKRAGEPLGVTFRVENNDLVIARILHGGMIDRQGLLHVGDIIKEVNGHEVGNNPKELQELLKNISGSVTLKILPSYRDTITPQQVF

FRMPD2_1, Q68DX3 = target: FRMPD2_1, Q68DX3
SNTA1, Q13424 = target: T9, SNTA1, Q13424
T9 sequence (Q13424 82-180, limits assumed, looked up): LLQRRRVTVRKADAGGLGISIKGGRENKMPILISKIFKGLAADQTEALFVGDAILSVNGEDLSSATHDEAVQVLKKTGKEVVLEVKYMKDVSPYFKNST

GRIP2_7, Q9C0E4 = target: GRIP2_7, Q9C0E4
TJP3_3, O95049 = target: T10, TJP3_3, O95049
T10 sequence (O95049 375-456, limits assumed, looked up): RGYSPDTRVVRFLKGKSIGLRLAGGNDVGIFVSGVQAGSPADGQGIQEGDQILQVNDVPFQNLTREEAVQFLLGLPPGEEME

FRMPD1, Q5SYB0 = target: T11, FRMPD1, Q5SYB0
T11 sequence (Q5SYB0 52-145, limits assumed, looked up): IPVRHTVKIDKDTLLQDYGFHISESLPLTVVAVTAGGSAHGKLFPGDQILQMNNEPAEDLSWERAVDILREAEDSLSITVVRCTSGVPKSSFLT

NHERF3_4, Q5T2W1 = target: T12, NHERF3_4, Q5T2W1
T12 sequence (Q5T2W1 373-468, limits assumed, looked up): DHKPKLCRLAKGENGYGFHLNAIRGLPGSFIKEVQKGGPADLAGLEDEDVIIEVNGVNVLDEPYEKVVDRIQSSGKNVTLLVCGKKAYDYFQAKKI

HTRA3, P83110 = target: T13, HTRA3, P83110
T13 sequence (P83110 354-453, limits assumed, looked up): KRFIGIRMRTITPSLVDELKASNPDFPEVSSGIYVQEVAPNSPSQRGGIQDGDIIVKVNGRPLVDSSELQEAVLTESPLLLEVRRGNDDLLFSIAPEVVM

CARD11, Q9BXL7 = target: T14, CARD11, Q9BXL7
T14 sequence (Q9BXL7 662-765, limits assumed, looked up): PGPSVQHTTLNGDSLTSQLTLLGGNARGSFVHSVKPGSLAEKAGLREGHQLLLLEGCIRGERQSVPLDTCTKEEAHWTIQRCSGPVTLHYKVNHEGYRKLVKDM

PDZD7_3, Q9H5P4 = target: T15, PDZD7_3, Q9H5P4
T15 sequence (Q9H5P4 857-944, limits assumed, looked up): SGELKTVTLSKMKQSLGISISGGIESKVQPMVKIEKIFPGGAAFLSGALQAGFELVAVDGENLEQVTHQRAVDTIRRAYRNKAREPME

[1] = plain residues with an end cap or a label only (N-terminal biotin on a linker: (peg)3)
[2] = plain residues with an end cap or a label only (N-terminal biotin on a linker: ado-ado)
[3] = plain residues with an end cap or a label only (N-terminal biotin on a linker: ahx)

Measured: pKd

FRMPD2_1, Q68DX3, sequence (Q68DX3 770-861): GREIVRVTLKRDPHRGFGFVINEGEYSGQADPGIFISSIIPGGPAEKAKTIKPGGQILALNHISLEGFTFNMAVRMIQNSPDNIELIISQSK
MAGI1_1, Q96QZ7, sequence (Q96QZ7 1-106): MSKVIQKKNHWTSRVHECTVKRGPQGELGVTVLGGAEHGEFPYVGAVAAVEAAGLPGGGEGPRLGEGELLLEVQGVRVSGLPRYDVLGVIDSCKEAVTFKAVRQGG
GRIP2_7, Q9C0E4, sequence (Q9C0E4 934-1023): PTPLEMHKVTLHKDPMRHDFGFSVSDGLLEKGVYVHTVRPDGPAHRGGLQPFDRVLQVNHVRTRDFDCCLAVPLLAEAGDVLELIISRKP
CASK, O14936, sequence (O14936 487-570): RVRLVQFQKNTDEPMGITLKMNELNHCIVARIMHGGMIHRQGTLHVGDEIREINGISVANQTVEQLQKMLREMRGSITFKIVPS
MAGI2_6, Q86UL8, sequence (Q86UL8 1141-1229): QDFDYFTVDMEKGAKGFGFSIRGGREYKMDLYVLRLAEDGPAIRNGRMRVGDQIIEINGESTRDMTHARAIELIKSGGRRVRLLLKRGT
TJP1_2, Q07157, sequence (Q07157 181-274): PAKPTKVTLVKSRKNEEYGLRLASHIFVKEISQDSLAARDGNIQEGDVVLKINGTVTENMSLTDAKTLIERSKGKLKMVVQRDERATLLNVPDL
GRIP2_4, Q9C0E4, sequence (Q9C0E4 446-548): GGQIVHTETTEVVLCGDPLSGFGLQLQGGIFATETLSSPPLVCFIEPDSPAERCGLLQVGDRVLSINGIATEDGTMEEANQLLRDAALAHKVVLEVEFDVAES

RRRRSQSRESQC [HBV-HBc, P03193]
4.14: TX1BP3, O14907; [1]
3.58: HTRA3, P83110; [1]
below the threshold: MAGI2_6, Q86UL8; [1] | MPP7, Q5T2T1; [1] | APBA3_1, O96018; [1] | ARHGEF11, O15085; [1] | APBA2_1, Q99767; [1] | SNTG1, Q9NSN8; [1] | RHPN1, Q8TCX5; [1] | TJP1_2, Q07157; [1] | CASK, O14936; [1] | MAGI1_1, Q96QZ7; [1] | GRIP2_4, Q9C0E4; [1] | MPP6, Q9NZW5; [1] | FRMPD2_1, Q68DX3; [1] | GRIP2_7, Q9C0E4; [1] | TJP3_3, O95049; [1] | FRMPD1, Q5SYB0; [1] | NHERF3_4, Q5T2W1; [1] | CARD11, Q9BXL7; [1] | PDZD7_3, Q9H5P4; [1]
4.44: SNTA1, Q13424; [1]

NTANRRTTPV [CACNG2, Q9Y698]
3.5: NHERF3_4, Q5T2W1; [2]
4.19: PDZD7_3, Q9H5P4; [2]
below the threshold: MPP7, Q5T2T1; [2] | APBA3_1, O96018; [2] | APBA2_1, Q99767; [2] | SNTG1, Q9NSN8; [2] | RHPN1, Q8TCX5; [2] | TJP1_2, Q07157; [2] | CASK, O14936; [2] | MAGI1_1, Q96QZ7; [2] | GRIP2_4, Q9C0E4; [2] | MPP6, Q9NZW5; [2] | FRMPD2_1, Q68DX3; [2] | GRIP2_7, Q9C0E4; [2] | TJP3_3, O95049; [2] | FRMPD1, Q5SYB0; [2] | HTRA3, P83110; [2] | CARD11, Q9BXL7; [2]
4.1: SNTA1, Q13424; [2]
4.76: TX1BP3, O14907; [2]
3.83: ARHGEF11, O15085; [2]
3.53: MAGI2_6, Q86UL8; [2]

TQKFRASTAL [FRMPD1, Q5SYB0]
3.77: FRMPD2_1, Q68DX3; [3]
4.54: NHERF3_4, Q5T2W1; [3]
3.79: RHPN1, Q8TCX5; [3]
below the threshold: MAGI2_6, Q86UL8; [3] | MPP7, Q5T2T1; [3] | APBA3_1, O96018; [3] | APBA2_1, Q99767; [3] | SNTG1, Q9NSN8; [3] | TJP1_2, Q07157; [3] | CASK, O14936; [3] | MAGI1_1, Q96QZ7; [3] | GRIP2_4, Q9C0E4; [3] | MPP6, Q9NZW5; [3] | SNTA1, Q13424; [3] | GRIP2_7, Q9C0E4; [3] | TJP3_3, O95049; [3] | FRMPD1, Q5SYB0; [3] | HTRA3, P83110; [3] | CARD11, Q9BXL7; [3]
3.92: PDZD7_3, Q9H5P4; [3]
4.17: TX1BP3, O14907; [3]
4.38: ARHGEF11, O15085; [3]

Reference: article PMC9482650, “Quantitative fragmentomics allow affinity mapping of interactomes” (Nature Communications, 2022)
